Consider eleven molecules from patent publication US20260167737A1 (BIGHAT BIOSCIENCES, published 2026).

Test [1] concerns the target CDH17 on SNU16 cells (UniProt Q12864).
Test [2] concerns the target T1, CDH17 (UniProt Q12864 23-787, limits assumed).
T1 construct: also called cadherin 17
T1 sequence (looked up): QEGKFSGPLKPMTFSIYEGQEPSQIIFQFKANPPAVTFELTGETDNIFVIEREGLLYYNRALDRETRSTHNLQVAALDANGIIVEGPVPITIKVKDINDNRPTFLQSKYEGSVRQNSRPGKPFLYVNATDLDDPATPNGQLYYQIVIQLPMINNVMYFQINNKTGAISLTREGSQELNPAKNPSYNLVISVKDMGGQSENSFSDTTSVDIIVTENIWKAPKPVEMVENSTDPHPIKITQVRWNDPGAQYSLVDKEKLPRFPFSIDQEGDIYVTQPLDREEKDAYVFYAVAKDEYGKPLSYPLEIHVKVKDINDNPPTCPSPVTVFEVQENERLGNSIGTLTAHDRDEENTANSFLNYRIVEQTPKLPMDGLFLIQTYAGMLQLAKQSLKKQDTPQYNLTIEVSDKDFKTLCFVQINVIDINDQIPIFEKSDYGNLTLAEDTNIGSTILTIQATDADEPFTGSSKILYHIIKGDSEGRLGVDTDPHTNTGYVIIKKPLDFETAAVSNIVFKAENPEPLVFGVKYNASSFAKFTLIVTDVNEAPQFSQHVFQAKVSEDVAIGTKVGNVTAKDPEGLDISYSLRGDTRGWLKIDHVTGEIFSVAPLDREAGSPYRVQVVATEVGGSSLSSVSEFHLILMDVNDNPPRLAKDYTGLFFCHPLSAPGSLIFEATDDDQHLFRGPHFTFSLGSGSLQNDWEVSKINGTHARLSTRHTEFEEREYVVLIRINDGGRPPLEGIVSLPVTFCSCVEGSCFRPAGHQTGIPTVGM

The target in test [3] is T1, CDH17. As to the kind of experiment: method not stated; KD at pH 7.4.

Substitutions are numbered along the chain they refer to.

The molecule isotype vedotin (Fc fusion) gave a cytotoxicity IC50 of the negative control (no asterisk: isotype control vedotin ADC), SNU16 (gastric) cells in test [1] greater than 100 nM. For the same molecule, in test [2], the cytotoxicity IC50 of the negative control (no asterisk: isotype control vedotin ADC), AsPC1 (PDAC) cells is greater than 100 nM; the cytotoxicity IC50 of the negative control (no asterisk: isotype control vedotin ADC), CAPAN2 (PDAC) cells (ABC <LLOD) is greater than 100 nM; the cytotoxicity IC50 of the negative control (no asterisk: isotype control vedotin ADC), LoVo (CRC) cells (ABC <LLOD) is greater than 100 nM; the cytotoxicity IC50 of the negative control (no asterisk: isotype control vedotin ADC), NCI-H508 (CRC) cells amounted to 0.301 nM. In test [2], this molecule came in with a cytotoxicity IC50 of the negative control (no asterisk: isotype control vedotin ADC), SW403 (CRC) cells greater than 100 nM and a cytotoxicity IC50 of the negative control (no asterisk: isotype control vedotin ADC), SW837 (CRC) cells (ABC <LLOD) greater than 100 nM.

B1: CDH17_vhh_0677 (VHH)
VHH: QVQLQESGGGLVQPGGSTRLSCVSSRTFSYYDMGWFRQAPGKEREFVALLSWRGNNAEYSDDVMGRFTVSRGNTQNSVNLQMNNLKPEDTGIYYCAVTYGKARSVRSWGQGTQVTVSS
On to B1, for which, in test [3], the Kd (as a rule, the constant that tells how readily two partners part at equilibrium) is 2.65 nM.

B2: CDH17_vhh_0689 (VHH)
VHH: B1 VHH with D62F, K101G, S107L
In test [3], B2 returned a Kd of 4.83 nM.

B3: CDH17_vhh_0949 (VHH)
VHH: B1 VHH with S107L
For B3, binding in test [3] was characterised by a dissociation constant (Kd) of 2.01 nM.

B4: CDH17_vhh_0948 (VHH)
VHH: B1 VHH with M64H, K101G, S107L
Consider B4, for which the affinity in test [3], expressed as Kd, was 3.94 nM.

B5: CDH17_vhh_0945 (VHH)
VHH: B1 VHH with D62S, M64H, K101V, S107L
The molecule B5 returned a Kd in test [3] of 2.15 nM.

B6: CDH17_vhh_0951 (VHH)
VHH: B1 VHH with K101T, S107L
B6 returned an equilibrium dissociation constant (Kd) in test [3] of 1.81 nM.

B7: CDH17_vhh_0950 (VHH)
VHH: B1 VHH with A57S, D62S, M64H, K101G, S107L
In test [3], B7 had a Kd of 3.81 nM.

B8: CDH17_vhh_0952 (VHH)
VHH: B1 VHH with K101N, S107L
On to B8, for which the Kd in test [3] was 2.61 nM.

B9: CDH17_vhh_0946 (VHH)
VHH: B1 VHH with D62F, K101V, S107L
With B9, the dissociation constant Kd in test [3] was determined as 2.04 nM.

B10: CDH17_vhh_0688 (VHH)
VHH: B1 VHH with K101N
As for B10, the affinity in test [3], expressed as Kd, was 5.43 nM.
